Data: publication PMC2566870
One block for each substance: values may come before it.

Tests used:
Experiment in all cases: SEC
[1] = target: Hera_CTD (C-terminal domain of Hera, amino acids 370-511) (Thermus thermophilus HB27)
[2] = target: Hera_E115C/R260C (Thermus thermophilus HB27)
[3] = target: Hera_core (aa 1-365) (Thermus thermophilus HB27)
[4] = target: Hera_core_E115C/R260C (Thermus thermophilus HB27)
[5] = target: Thermus thermophilus DEAD box helicase Hera, wild-type (Thermus thermophilus HB27) (UniProt Q72GF3)

Substance: Hera_E115C/R260C (enzyme)
stoichiometry N [2]: 2

Substance: Hera_core (aa 1-365) (domain or fragment)
stoichiometry N [3]: 2

Now from value to substance:

stoichiometry N [1]: 2
Substance: Hera_CTD (C-terminal domain of Hera, amino acids 370-511) (domain or fragment)

stoichiometry N [4]: 2
Substance: Hera_core_E115C/R260C (domain or fragment)

stoichiometry N [5]: 2
Substance: Thermus thermophilus DEAD box helicase Hera, wild-type (from UniProt Q72GF3 1-517) (enzyme)
